Test results published in patent publication US20250122291A1 (CEPHALON, published 2025).

B1: anti-TrkA antibody Ab386 (antibody, V domains shown)
VH: QVQLQESGPGLVKPSGTLSLTCAVSGGSISSSNWWTWVRQPPGKGLEWIGEIYHRGNRNYNPSLKSRVTISVDKSKNQFSLKLSSVTAADTAVYYCARAPWFDYWGQGTLV
VL: SSELTQDPAVSVALGQTVRITCQGDSLRSYYASWYQQKPGQAPVLVIYGKNNRPSGIPDRFSGSSSGNTASLTITGAQAEDEADYYCNSQDSSGNHLIFGGGTKLTVLG
B2: anti-TrkA antibody Ab3 (antibody, V domains shown)
VH: QVQLQESGPGLVKPSGTLSLTCAVSGGSVSSGNWWTWVRQPPGKGLEWIGEIYHRGNTNYNPSLKSRVTISVDKSKNQFSLKLNSVTAADTAVYFCARAPFFDYWGQGTLV
VL: SSELTQDPAVSVALGQTVRITCQGDSLRSYYASWYQQKPGQAPVLVIFGKNNRPSGIPDRFSGSSSGNTASLTITGAQAEDEADYYCNSQVSGGNHLIFGGGTKLTVLG
B3: anti-TrkA antibody Ab449 (antibody, V domains shown)
VH: QVQLQESGPGLVKPSGTLSLTCAVSGGSISSSNWWTWVRQPPGKGLEWIGEIYHRGNRNYNPSLKSRVTISVDKSKNQFSLKLSSVTAADTAVYYCARAPWFDRWGQGTLV
VL: SSELTQDPAVSVALGQTVRITCQGDSLRSYYASWYQQKPGQAPVLVIYGKNNRPSGIPDRFSGSSSGNTASLTITGAQAEDEADYYCNSQDSSGNHLIFGGGTKLTVLG
B4: anti-TrkA antibody Ab476 (antibody, V domains shown)
VH: QVQLQESGPGLVKPSGTLSLTCAVSGGSISSSNWWTWVRQPPGKGLEWIGEIYHRGNRNYNPSLKSRVTISVDKSKNQFSLKLSSVTAADTAVYYCARAPFFDRWGQGTLV
VL: SSELTQDPAVSVALGQTVRITCQGDSLRSYYASWYQQKPGQAPVLVIHGKNNRPSGIPDRFSGSSSGNTASLTITGAQAEDEADYYCNSQDSSGNHLIFGGGTKLTVLG
B5: anti-TrkA antibody Ab523 (antibody, V domains shown)
VH: QVQLQESGPGLVKPSGTLSLTCAVSGGSVSSGNWWTWVRQPPGKGLEWIGEIYHRGNRNYNPSLKSRVTISVDKSKNQFSLKLNSVTAADTAVYFCARAPFFDYWGQGTLV
VL: SSELTQDPAVSVALGQTVRITCQGDSLRSYYASWYQQKPGQAPVLVIYGKNNRPSGIPDRFSGSSSWNTASLTITGAQAEDEADYYCNSQDSSGNHLIFGGGTKLTVLG
B6: anti-TrkA antibody Ab676 (antibody, V domains shown)
VH: QVQLQESGPGLVKPSGTLSLTCAVSGGSVSSGNWWTWVRQPPGKGLEWIGEIYHRGNTNYNPSLKSRVTISVDKSKNQFSLKLNSVTAADTAVYFCARAPFFDYWGQGTLV
VL: SSELTQDPAVSVALGQTVRITCQGDSLRSYYASWYQQKPGQAPVLVIHGKNNRPSGIPDRFSGSSSGNTASLTITGAQAEDEADYYCNSQVYGGNHLIFGGGTKLTVLG
B7: anti-TrkA antibody Ab49 (antibody, V domains shown)
VH: EVQLQESGPGLVKPSGTLSLTCAVSGGSISSSNWWTWVRQPPGKGLEWIGEIYHRGNRNYNPSLKSRVTISVDKSKNQFSLKLSSVTAADTAVYYCARAPWFDYWGQGTLV
VL: SSELTQDPAVSVALGQTVRITCQGDSLRSYYASWYQQKPGQAPVLVIYGKNNRPSGIPDRFSGSSSGNTASLTITGAQAEDEADYYCASQASSGNHLIFGGGTKLT
B8: anti-TrkA antibody Ab67 (antibody, V domains shown)
VH: EVQLQESGPGLVKPSGTLSLTCAVSGGSISSSNWWTWVRQPPGKGLEWIGEIYHRGNRNYNPSLKSRVTISVDKSKNQFSLKLSSVTAADTAVYYCARAPWFDYWGQGTLV
VL: SSELTQDPAVSVALGQTVRITCQGDALRSYYASWYQQKPGQAPVLVIYGKNNRPSGIPDRFSGSSSGNTASLTITGAQAEDEADYYCNSQASSGNHLIFGGGTKLT
B9: anti-TrkA antibody Ab70 (antibody, V domains shown)
VH: EVQLQESGPGLVKPSGTLSLTCAVSGGSISSSNWWTWVRQPPGKGLEWIGEIYHRGNRNYNPSLKSRVTISVDKSKNQFSLKLSSVTAADTAVYYCARAPWFDYWGQGTLV
VL: SSELTQDPAVSVALGQTVRITCQGDALRSYYASWYQQKPGQAPVLVIYGKNNRPSGIPDRFSGSSSGNTASLTITGAQAEDEADYYCASQASSGNHLIFGGGTKLT
B10: anti-TrkA antibody Ab76 (antibody, V domains shown)
VH: EVQLQESGPGLVKPSGTLSLTCAVSGGSISSSNWWTWVRQPPGKGLEWIGEIYHRGNRNYNPSLKSRVTISVDKSKNQFSLKLSSVTAADTAVYYCARAPWFDYWGQGTLV
VL: SSELTQDPAVSVALGQTVRITCQGDALRSYYASWYQQKPGQAPVLVIYGKNKRPSGIPDRFSGSSSGNTASLTITGAQAEDEADYYCASQASSGNHLIFGGGTKLT
B11: anti-TrkA antibody Ab79 (antibody, V domains shown)
VH: EVQLQESGPGLVKPSGTLSLTCAVSGGSISSSNWWTWVRQPPGKGLEWIGEIYHRGNRNYNPSLKSRVTISVDKSKNQFSLKLSSVTAADTAVYYCARAPWFDYWGQGTLV
VL: SSELTQDPAVSVALGQTVRITCQGDALRSYYASWYQQKPGQAPVLVIYGKGNRPSGIPDRFSGSSSGNTASLTITGAQAEDEADYYCNSQASSGNHLIFGGGTKLT
B12: anti-TrkA antibody Ab82 (as in Tables 4 and 6) (antibody, V domains shown)
VH: QVQLQESGPGLVKPSGTLSLTCAVSGGSISSSNWWTWVRQPPGKGLEWIGEIYHRGNRNYNPSLKSRVTISVDKSKNQFSLKLSSVTAADTAVYYCARAPWFDYWGQGTLV
VL: SSELTQDPAVSVALGQTVRITCQGDALRSYYASWYQQKPGQAPVLVIYGKGNRPSGIPDRFSGSSSGNTASLTITGAQAEDEADYYCASQASSGNHLIFGGGTKLT
B13: anti-TrkA antibody Ab96 (antibody, V domains shown)
VH: EVQLQESGPGLVKPSGTLSLTCAVSGGSISSSNWWTWVRQPPGKGLEWIGEIYHRGNRNYNPSLKSRVTISVDKSKNQFSLKLSSVTAADTAVYYCARAPWFDYWGQGTLV
VL: SSELTQDPAVSVALGQTVRITCQGGSLRSYYASWYQQKPGQAPVLVIYGKNKRPSGIPDRFSGSSSGNTASLTITGAQAEDEADYYCNSQASSGNHLIFGGGTKLT
B14: anti-TrkA antibody Ab101 (antibody, V domains shown)
VH: EVQLQESGPGLVKPSGTLSLTCAVSGGSISSSNWWTWVRQPPGKGLEWIGEIYHRGNRNYNPSLKSRVTISVDKSKNQFSLKLSSVTAADTAVYYCARAPWFDYWGQGTLV
VL: SSELTQDPAVSVALGQTVRITCQGGSLRSYYASWYQQKPGQAPVLVIYGKGNRPSGIPDRFSGSSSGNTASLTITGAQAEDEADYYCNSQDSSGNHLIFGGGTKLT
B15: anti-TrkA antibody Ab119 (antibody, V domains shown)
VH: EVQLQESGPGLVKPSGTLSLTCAVSGGSISSSNWWTWVRQPPGKGLEWIGEIYHRGNRNYNPSLKSRVTISVDKSKNQFSLKLSSVTAADTAVYYCARAPWFDYWGQGTLV
VL: SSELTQDPAVSVALGQTVRITCQGASLRSYYASWYQQKPGQAPVLVIYGKNKRPSGIPDRFSGSSSGNTASLTITGAQAEDEADYYCNSQASSGNHLIFGGGTKLT
B16: anti-TrkA antibody Ab122 (antibody, V domains shown)
VH: EVQLQESGPGLVKPSGTLSLTCAVSGGSISSSNWWTWVRQPPGKGLEWIGEIYHRGNRNYNPSLKSRVTISVDKSKNQFSLKLSSVTAADTAVYYCARAPWFDYWGQGTLV
VL: SSELTQDPAVSVALGQTVRITCQGASLRSYYASWYQQKPGQAPVLVIYGKNKRPSGIPDRFSGSSSGNTASLTITGAQAEDEADYYCASQASSGNHLIFGGGTKLT
B17: anti-TrkA antibody Ab124 (antibody, V domains shown)
VH: EVQLQESGPGLVKPSGTLSLTCAVSGGSISSSNWWTWVRQPPGKGLEWIGEIYHRGNRNYNPSLKSRVTISVDKSKNQFSLKLSSVTAADTAVYYCARAPWFDYWGQGTLV
VL: SSELTQDPAVSVALGQTVRITCQGASLRSYYASWYQQKPGQAPVLVIYGKGNRPSGIPDRFSGSSSGNTASLTITGAQAEDEADYYCNSQDSSGNHLIFGGGTKLT

Columns and labels:
[1] = target: native rat TrkA on PC12 cells (rat, UniProt P35739 33-799); experiment: cell-based or functional assay
recombinant human TrkA = target: T1, recombinant human TrkA (human, UniProt P04629 33-423, limits assumed); experiment: SPR, antibody captured on protein A chip, TrkA as analyte, single concentration, 1:1 model
T1 construct: also called hTrkA
T1 sequence (P04629 33-423 limits assumed): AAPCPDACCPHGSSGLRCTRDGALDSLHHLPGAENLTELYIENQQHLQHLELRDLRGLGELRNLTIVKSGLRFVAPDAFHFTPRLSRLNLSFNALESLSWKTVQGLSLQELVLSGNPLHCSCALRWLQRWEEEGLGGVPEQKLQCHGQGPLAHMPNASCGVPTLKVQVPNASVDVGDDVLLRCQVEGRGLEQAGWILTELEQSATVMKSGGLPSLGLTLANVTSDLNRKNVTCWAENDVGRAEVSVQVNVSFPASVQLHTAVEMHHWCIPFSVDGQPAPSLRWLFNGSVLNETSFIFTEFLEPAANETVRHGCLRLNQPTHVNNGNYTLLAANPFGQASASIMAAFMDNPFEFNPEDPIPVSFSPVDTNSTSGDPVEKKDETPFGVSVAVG

Chain of native rat TrkA on PC12 cells (P35739 33-799): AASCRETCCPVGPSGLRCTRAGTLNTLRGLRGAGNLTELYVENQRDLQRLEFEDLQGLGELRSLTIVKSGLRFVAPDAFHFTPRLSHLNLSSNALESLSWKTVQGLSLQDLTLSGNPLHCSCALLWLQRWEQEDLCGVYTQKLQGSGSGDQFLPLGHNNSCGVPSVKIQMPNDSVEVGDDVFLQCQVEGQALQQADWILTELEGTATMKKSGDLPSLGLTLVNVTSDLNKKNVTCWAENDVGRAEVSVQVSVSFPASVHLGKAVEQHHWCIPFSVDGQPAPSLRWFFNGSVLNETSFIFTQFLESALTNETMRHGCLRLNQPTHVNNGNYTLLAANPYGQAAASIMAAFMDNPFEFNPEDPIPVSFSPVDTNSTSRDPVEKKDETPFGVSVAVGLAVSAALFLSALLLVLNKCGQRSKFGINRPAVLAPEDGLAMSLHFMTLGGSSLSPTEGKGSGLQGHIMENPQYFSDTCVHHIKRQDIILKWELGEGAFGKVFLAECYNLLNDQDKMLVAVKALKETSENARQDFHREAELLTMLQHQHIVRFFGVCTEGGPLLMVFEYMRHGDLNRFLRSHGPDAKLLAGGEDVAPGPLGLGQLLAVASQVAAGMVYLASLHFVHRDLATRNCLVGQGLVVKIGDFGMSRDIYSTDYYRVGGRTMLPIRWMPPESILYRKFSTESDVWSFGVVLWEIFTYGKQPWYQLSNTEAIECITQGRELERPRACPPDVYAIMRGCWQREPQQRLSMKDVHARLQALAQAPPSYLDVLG

Row | Molecule | Akt phosphorylation in PC12 cells, EC50 [1] [nM] | Erk phosphorylation in PC12 cells, EC50 [1] [nM] | TrkA receptor phosphorylation in PC12 cells (AlphaLISA p-TrkA Tyr674/675), EC50 [1] [nM] | neurite outgrowth in PC12 cells at 138 hours, EC50 [1] [nM] | Akt pathway activation (pEC50) [1] [pEC50] | Erk pathway activation (pEC50) [1] [pEC50] | Neurite outgrowth (pEC50) [1] [pEC50] | Kd (recombinant human TrkA) [nM] | koff (recombinant human TrkA) [s⁻¹] | kon (recombinant human TrkA) [M⁻¹ s⁻¹]
1 | mouse β-NGF (from UniProt P01139 122-241) (ligand) | 0.025 | 0.025 | 0.129 | 0.0078 |  |  |  |  |  | 
2 | B1 |  |  |  |  | 9 | 9.23 | 10.1 | 1.15 | 0.000305 | 266000
3 | B2 |  |  |  |  | 8.67 | 8.86 | 9.79 | 2.1 | 0.000614 | 293000
4 | B3 |  |  |  |  |  |  |  | 0.875 | 0.000244 | 279000
5 | B4 |  |  |  |  |  |  |  | 1.25 | 0.0003 | 240000
6 | B5 |  |  |  |  |  |  |  | 1.3 | 0.000258 | 199000
7 | B6 |  |  |  |  |  |  |  | 0.815 | 0.000216 | 265000
8 | B7 |  |  |  |  | 9.12 | 9.29 | 10.1 | 1.78 | 0.000472 | 264000
9 | B8 |  |  |  |  | 9.07 | 9.28 | 9.96 | 1.91 | 0.000477 | 250000
10 | B9 |  |  |  |  | 9.05 | 9.21 | 10 | 1.63 | 0.000432 | 265000
11 | B10 |  |  |  |  | 9.57 | 9.78 | 9.95 | 0.943 | 0.000211 | 
12 | B11 |  |  |  |  | 8.97 | 9.21 | 10.2 | 1.67 | 0.000421 | 252000
13 | B12 |  |  |  |  | 9.09 | 9.14 | 9.99 | 1.75 | 0.000443 | 253000
14 | B13 |  |  |  |  | 9.53 | 10.2 | 9.81 | 1.23 | 0.000277 | 
15 | B14 |  |  |  |  | 9.2 | 9.45 | 10 | 1.29 | 0.000352 | 273000
16 | B15 |  |  |  |  | 9.25 | 10.2 | 10.2 | 1.11 | 0.000265 | 
17 | B16 |  |  |  |  | 9.5 | 9.88 | 9.6 | 1.45 | 0.000294 | 
18 | B17 |  |  |  |  | 9.03 | 9.23 | 10.1 | 1.21 | 0.000327 | 271000
